Data from patent US20110311550A1 (Scripps Research, published 2011).

Experiments:
Experiment in all cases: ELISA, lectin-captured E1E2 lysate, Ab 1 ug/ml
[1] = target: E1E2 complex (H77) with E1 mutation T292A (HCV genotype 1a, isolate H77, UniProt P27958 192-383; P27958 384-746)
[2] = target: E1E2 complex (H77) with E1 mutation R317A (HCV genotype 1a, isolate H77, UniProt P27958 192-383; P27958 384-746)
[3] = target: E1E2 complex (H77) with E1 mutation N196A/N305A (HCV genotype 1a, isolate H77, UniProt P27958 192-383; P27958 384-746)
[4] = target: E1E2 complex (H77) with E1 mutation S198A (HCV genotype 1a, isolate H77, UniProt P27958 192-383; P27958 384-746)
[5] = target: E1E2 complex (H77) with E1 mutation N196A/N325A (HCV genotype 1a, isolate H77, UniProt P27958 192-383; P27958 384-746)
[6] = target: E1E2 complex (H77) with E1 mutation Q193A (HCV genotype 1a, isolate H77, UniProt P27958 192-383; P27958 384-746)
[7] = target: E1E2 complex (H77) with E1 mutation A319G (HCV genotype 1a, isolate H77, UniProt P27958 192-383; P27958 384-746)
[8] = target: E1E2 complex (H77) with E1 mutation H352A (HCV genotype 1a, isolate H77, UniProt P27958 192-383; P27958 384-746)
[9] = target: E1E2 complex (H77) with E1 mutation D279A (HCV genotype 1a, isolate H77, UniProt P27958 192-383; P27958 384-746)
[10] = target: E1E2 complex (H77) with E1 mutation T314A (HCV genotype 1a, isolate H77, UniProt P27958 192-383; P27958 384-746)
[11] = target: E1E2 complex (H77) with E1 mutation M318A (HCV genotype 1a, isolate H77, UniProt P27958 192-383; P27958 384-746)
[12] = target: E1E2 complex (H77) with E1 mutation N305A/N209A (HCV genotype 1a, isolate H77, UniProt P27958 192-383; P27958 384-746)
[13] = target: E1E2 complex (H77) with E1 mutation Y276A (HCV genotype 1a, isolate H77, UniProt P27958 192-383; P27958 384-746)
[14] = target: E1E2 complex (H77) with E1 mutation A274G (HCV genotype 1a, isolate H77, UniProt P27958 192-383; P27958 384-746)
[15] = target: E1E2 complex (H77) with E1 mutation R296A (HCV genotype 1a, isolate H77, UniProt P27958 192-383; P27958 384-746)
[16] = target: E1E2 complex (H77) with E1 mutation N196A/N234A (HCV genotype 1a, isolate H77, UniProt P27958 192-383; P27958 384-746)
[17] = target: E1E2 complex (H77) with E1 mutation S294A (HCV genotype 1a, isolate H77, UniProt P27958 192-383; P27958 384-746)
[18] = target: E1E2 complex (H77) with E1 mutation L258A (HCV genotype 1a, isolate H77, UniProt P27958 192-383; P27958 384-746)
[19] = target: E1E2 complex (H77) with E1 mutation N196A/N209A (HCV genotype 1a, isolate H77, UniProt P27958 192-383; P27958 384-746)
[20] = target: E1E2 complex (H77) with E1 mutation Q289A (HCV genotype 1a, isolate H77, UniProt P27958 192-383; P27958 384-746)
[21] = target: E1E2 complex (H77) with E1 mutation N325A (HCV genotype 1a, isolate H77, UniProt P27958 192-383; P27958 384-746)
[22] = target: E1E2 complex (H77) with E2 mutation H617A (HCV genotype 1a, isolate H77, UniProt P27958 192-383; P27958 384-746)

B1: N4 IgG (antibody, V domains shown)
VH: VQLLEQSGPEVKKPGDSLRISCKMSGDSLVTTWIGWVRQKPGQGLEWMGIINPGDSSTNIYPGDSATRYGPSFQGQVTISIDKSTSTAYLQWNNVKASDTGIYYCARHVPVPISGTFLWREREMHDFGYFDDWGQGTLVIVSS
VL: ELTLTQSPGTLSLSPGERATLSCRASQSVSNNYLAWYQQKPGQAPRLLIYGASSRATGIPDRFSGSGSGTGFTLIISRLEPEDFAVYYCQQYGSSSITFGQGTRLEIKR
notes: also called IgG N4
Binding relative to wt (%) [1]: 104% | Binding relative to wt (%) [2]: 98% | Binding relative to wt (%) [3]: 4% | Binding relative to wt (%) [4]: 78% | Binding relative to wt (%) [5]: 54% | Binding relative to wt (%) [6]: 117% | Binding relative to wt (%) [7]: 113% | Binding relative to wt (%) [8]: 60% | Binding relative to wt (%) [9]: 31% | Binding relative to wt (%) [10]: 83% | Binding relative to wt (%) [11]: 92% | Binding relative to wt (%) [12]: 17% | Binding relative to wt (%) [13]: 103% | Binding relative to wt (%) [14]: 71% | Binding relative to wt (%) [15]: 138% | Binding relative to wt (%) [16]: 32% | Binding relative to wt (%) [17]: 71% | Binding relative to wt (%) [18]: 89% | Binding relative to wt (%) [19]: 21% | Binding relative to wt (%) [20]: 94% | Binding relative to wt (%) [21]: 150% | Binding relative to wt (%) [22]: 21%
